One substance from paper PMC12488921 can be followed below.

Assay [1] deals with Human DNAJB6b (human) (UniProt O75190). In words: mass photometry; dissociation kinetics: 34 μM non-labeled JB6 diluted to 50 nM at time zero, 22 and 37 °C; total micelle mass (N > 2) in 60 s of data collection against time.
For assay [2] the target is unchanged. Nature of the assay: mass photometry; JB6 equilibrated at different concentrations (1 to 100 μM), 20 mM NaP, 0.2 mM EDTA, pH 8.0, room temperature; samples above 200 nM diluted to 200 nM less than a minute before a 60 s measurement; also 5 μM JB6 with 0-1.25 M NaCl.

Where “and” joins values, the source holds several entries; their conditions need not be identical. Equal entries are not always repeated.

Human DNAJB6b, O75190-2 1-241 (natural protein; other documents disagree on this pair), sequence (O75190 other isoform, or with tags, fused parts or gaps): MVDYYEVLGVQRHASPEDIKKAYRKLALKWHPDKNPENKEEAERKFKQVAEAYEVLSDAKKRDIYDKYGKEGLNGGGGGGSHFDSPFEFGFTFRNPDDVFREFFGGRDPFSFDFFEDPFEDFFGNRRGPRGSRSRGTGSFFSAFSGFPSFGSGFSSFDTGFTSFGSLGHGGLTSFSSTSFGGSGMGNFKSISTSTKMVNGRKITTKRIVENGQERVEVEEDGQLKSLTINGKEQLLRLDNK

In turn, “Human DNAJB6b, O75190-2 1-241 (natural protein; other documents disagree on this pair)” gave a time scale of micelle dissociation at 37 °C in assay [1] of 20 min. Also, the stoichiometry N in assay [2] is 20 and 40.

As a reminder, the stoichiometry N is a count of units in the complex or per binding partner.
